{"source": "patent US20240150417A1", "molecular_target": "human transferrin receptor (human) (UniProt P02786)", "sequence (P02786 89-760 limits assumed)": "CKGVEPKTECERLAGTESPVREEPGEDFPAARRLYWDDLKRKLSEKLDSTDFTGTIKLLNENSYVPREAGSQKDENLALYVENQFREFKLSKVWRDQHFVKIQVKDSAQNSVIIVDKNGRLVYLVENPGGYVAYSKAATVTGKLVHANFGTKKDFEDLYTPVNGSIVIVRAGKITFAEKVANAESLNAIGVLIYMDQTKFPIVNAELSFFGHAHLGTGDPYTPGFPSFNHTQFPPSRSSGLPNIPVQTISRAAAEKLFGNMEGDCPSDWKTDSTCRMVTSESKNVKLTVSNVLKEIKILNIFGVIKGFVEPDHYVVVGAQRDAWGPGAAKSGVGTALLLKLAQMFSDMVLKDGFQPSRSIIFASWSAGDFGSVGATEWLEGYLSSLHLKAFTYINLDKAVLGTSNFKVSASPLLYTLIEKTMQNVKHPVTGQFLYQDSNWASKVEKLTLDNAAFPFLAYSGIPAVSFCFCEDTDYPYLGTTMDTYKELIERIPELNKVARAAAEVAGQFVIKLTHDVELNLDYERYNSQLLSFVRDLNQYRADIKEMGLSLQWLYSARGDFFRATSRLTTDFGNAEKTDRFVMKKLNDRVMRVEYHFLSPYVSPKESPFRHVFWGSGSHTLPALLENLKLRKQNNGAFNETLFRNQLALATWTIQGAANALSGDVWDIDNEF", "experiment": "MST (Monolith NT.115), dye-labelled protein, receptor titrated", "note": "pKd: −log10 of the molar value."}
{"substance": "AB-AH1-huHF (from UniProt P02794 1-183)", "values": [{"measurement": "pKd", "result": 7.96}]}
{"substance": "AB-gp100-huHF (from UniProt P02794 1-183)", "values": [{"measurement": "pKd", "result": 7.53}]}
{"substance": "BC-AH1-huHF (from UniProt P02794 1-183)", "values": [{"measurement": "pKd", "result": 6.97}]}
{"substance": "CD-AH1-huHF (from UniProt P02794 1-183)", "values": [{"measurement": "pKd", "result": 8.46}]}
{"substance": "CD-gp100-huHF (from UniProt P02794 1-183)", "values": [{"measurement": "pKd", "result": 8.31}]}
{"substance": "DE-AH1-huHF (from UniProt P02794 1-183)", "values": [{"measurement": "pKd", "result": 8.21}]}
